Here are results for 18 molecules from patent publication US20230002496A1 (STAIDSON BEIJING BIOPHARMACEUTICALS, published 2023).

Assay [1] concerns the target T1, human GM-CSFRα, full length on cells (human, UniProt P15509 23-400).
T1 sequence: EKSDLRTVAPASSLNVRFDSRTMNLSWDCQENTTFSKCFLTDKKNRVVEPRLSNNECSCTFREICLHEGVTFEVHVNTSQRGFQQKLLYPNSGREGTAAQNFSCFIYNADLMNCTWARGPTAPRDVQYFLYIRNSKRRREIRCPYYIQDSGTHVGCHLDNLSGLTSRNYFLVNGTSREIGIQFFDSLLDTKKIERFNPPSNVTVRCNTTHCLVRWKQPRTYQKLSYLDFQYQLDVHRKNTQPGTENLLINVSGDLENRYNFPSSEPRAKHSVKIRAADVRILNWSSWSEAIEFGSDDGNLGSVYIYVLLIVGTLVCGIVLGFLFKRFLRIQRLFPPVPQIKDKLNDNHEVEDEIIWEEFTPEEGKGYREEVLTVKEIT
The assay can be described thus: cell-based or functional assay.

Assay [2] deals with T1, human GM-CSFRα, full length on cells. The assay is described as follows: cell-based or functional assay. The source holds these as a separate data set.
Assay [3] addresses T2, human GM-CSFRα-6His (human, UniProt P15509 23-320).
T2 construct: pTT5-GMRa-6his (ECD), made in 293F cells; also called GMRah; GMRa-6his(ECD)
T2 sequence: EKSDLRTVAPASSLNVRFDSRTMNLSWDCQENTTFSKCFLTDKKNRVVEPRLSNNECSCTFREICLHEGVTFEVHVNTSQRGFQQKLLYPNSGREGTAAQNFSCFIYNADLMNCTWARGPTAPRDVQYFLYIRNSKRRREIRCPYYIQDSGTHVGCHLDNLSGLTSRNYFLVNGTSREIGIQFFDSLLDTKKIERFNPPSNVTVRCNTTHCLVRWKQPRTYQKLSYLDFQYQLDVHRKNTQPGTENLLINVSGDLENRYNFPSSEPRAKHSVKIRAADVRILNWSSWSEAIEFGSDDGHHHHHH
The assay is described as follows: SPR, Biacore T200, antibody (IgG4) on CM5 chip, GMRah as analyte. The protocol:
The affinities for GMRah at various concentrations were measured. […] The concentrations of 0.625 and 0 nM were repeated once. Using the SPR technology, the association and dissociation rates were measured, and binding affinity was determined.
For orientation: In SPR one partner is held on a chip, and binding of the other changes the refractive index at the surface.

Assay [4] concerns the target T1, human GM-CSFRα, full length on cells. The assay is described as follows: cell-based or functional assay. The source holds these as a separate data set.
Assay [5] shares this target. The assay is described as follows: cell-based or functional assay. The source holds these as a separate data set.
In assay [6] the target is T3, cynomolgus monkey GM-CSFRα on granulocytes (cynomolgus monkey, UniProt A0A2K5UC70 23-393).
T3 sequence: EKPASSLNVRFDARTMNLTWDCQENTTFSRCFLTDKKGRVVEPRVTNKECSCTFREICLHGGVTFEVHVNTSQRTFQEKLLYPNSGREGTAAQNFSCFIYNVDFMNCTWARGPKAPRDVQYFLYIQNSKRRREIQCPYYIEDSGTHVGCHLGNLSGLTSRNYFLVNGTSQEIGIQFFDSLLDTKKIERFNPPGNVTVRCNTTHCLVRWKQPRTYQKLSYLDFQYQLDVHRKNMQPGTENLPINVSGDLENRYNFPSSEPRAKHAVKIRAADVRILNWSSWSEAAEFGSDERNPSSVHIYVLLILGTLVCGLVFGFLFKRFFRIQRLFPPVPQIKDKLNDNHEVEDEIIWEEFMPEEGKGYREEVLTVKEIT
The assay is described as follows: cell-based or functional assay.

Assay [7] addresses T1, human GM-CSFRα, full length on cells. The assay is described as follows: cell-based or functional assay. This is another data set of the same source.
For assay [8] the target is unchanged. The assay is described as follows: cell-based or functional assay. This is another data set of the same source.
The target is the same in assay [9]. The assay can be described thus: cell-based or functional assay. The source holds these as a separate data set.
The target is the same in assay [10]. The assay is described as follows: cell-based or functional assay. The source holds these as a separate data set.
In assay [11] the target is T2, human GM-CSFRα-6His. The assay is described as follows: ELISA, antibodies as human IgG4, one bar for each protein; antibody concentration not shown.
For assay [12], the target named is T2, human GM-CSFRα-6His. The assay is described as follows: competitive ELISA, title on the sheet 'Blocking GMRah binding to GM-CSF'; antibody (human IgG4) titrated; blocked ligand GM-CSF; x axis 'Log Ab concentration', no unit. A general note: ELISA stands for enzyme-linked immunosorbent assay.
Assay [13] deals with T2, human GM-CSFRα-6His. The assay is described as follows: ELISA on human GM-CSFRα, antibodies as human IgG1; x axis 'Log Ab concentration', no unit.

Changes are numbered by the printed parent chain. Like-named read-outs stand apart in the source and are kept apart here.

As to Mab-IgG4 (Mavrilimumab) (antibody), in assay [1], the IC50, CD11b expression on human peripheral blood cells stood at 0.181 µg/mL; the IC50, IL-1β secretion by PBMC stood at 0.0126 µg/mL; the IC50, TNFα secretion by PBMC (ELISA) was 1.74 µg/mL; the IC50, TNFα secretion by PBMC (Human Macrophage/Microglia Panel) stood at 3.09 µg/mL.

B1: E35-IgG4 (antibody, V domains shown)
VH: QMQLVQSGAEVKKPGASVKVSCKVSGYTLTELSIHWVRQAPGKGLEWMGGFDPEDGETIYAQKFQGRVTMTGDTSTDTAYLELSSLRSEDTALYYCATGRYTSLATTYGFDYWGQGTLVTVSS
VL: EIVMTQSPATLSLSPGERATLSCRASQSVSSYLAWYQQKPGQAPRLLIYGASSRATGIPDRFSGSGSGTDFTLTISRLEPEDFAVYYCQQYDNWPYTFGQGTKLEIK
notes: human IgG4, human kappa; also called E35-IG4
As to B1, the “IC50, IL-1β secretion by PBMC” value in [2] was determined as 0.00353 µg/mL. In the assay with human GM-CSFRα-6His [3], this molecule returned a Kd of 8.9 pM, a koff of 4.78e-05 s⁻¹ and a kon of 5.37e+06 M⁻¹ s⁻¹. Further, the “IC50, TNFα secretion by PBMC (ELISA)” value in assay [4] is 0.329 µg/mL. In [5], the “IC50, CD11b expression on human peripheral blood cells” value was found to be 0.111 µg/mL. Also, the “IC50, cynomolgus monkey granulocyte shape change” value in assay [6] amounted to 0.00253 µg/mL. In addition, the “IC50, human granulocyte survival” value in assay [7] amounted to 0.0042 µg/mL. The “IC50, TNFα secretion by PBMC (Human Macrophage/Microglia Panel)” value in assay [8] came out at 0.278 µg/mL. Moreover, the “IC50, TF-1 cell proliferation” value in assay [9] turned out to be 0.0474 µg/mL. For the same molecule, the “IC50, human granulocyte shape change” value in assay [10] worked out at 0.00205 µg/mL.

B2: E87-IgG4 (antibody, V domains shown)
VH: B1 VH with F64S, T102V, A105F, T106F, T107N
VL: B1 VL with D92N, Y96P
notes: human IgG4, human kappa
Consider B2, for which the binding result in the assay with human GM-CSFRα-6His [11] is on record as “binds”.

B3: EII33-IgG4 (antibody, V domains shown)
VH: B1 VH with P53G, E54D, D55G, G56E, T106A
VL: B1 VL with D92R, Y96F
notes: human IgG4, human kappa
As for B3, the binding result in the assay with human GM-CSFRα-6His [12] is “binds”.

B4: EII52-IgG4 (antibody, V domains shown)
VH: B1 VH with P53G, E54D, D55I, G56E
VL: B1 VL with D92A, W94P, Y96N
notes: human IgG4, human kappa
As to B4, the binding result with human GM-CSFRα-6His [12] is on record as “binds”.

B5: E90-IgG4 (antibody, V domains shown)
VH: B1 VH with F64S, S103G, A105Y, T106A, T107S
VL: B1 VL
notes: human IgG4, human kappa
Consider B5, for which the binding result with human GM-CSFRα-6His [12] is recorded as “binds”.

B6: E105-IgG1 (antibody, V domains shown)
VH: B1 VH with A105M, T106F
VL: B1 VL with D92N, Y96P
notes: human IgG1, human kappa
With B6, the binding result with human GM-CSFRα-6His [13] is recorded as “binds”.

B7: T119-IgG4 (antibody, V domains shown)
VH: B1 VH with Y27H, I59N, F64S, T102C, L104T, A105D, T107C
VL: B1 VL with D92N, Y96P
notes: human IgG4, human kappa; parent antibody
B7: the binding result with human GM-CSFRα-6His [12] was “binds”.

B8: E94-IgG4 (antibody, V domains shown)
VH: B1 VH with Y27H, I34M, T102C, S103E, L104T, A105D, T106I, T107C
VL: B1 VL with D92N, Y96P
notes: human IgG4, human kappa
Regarding B8, the binding result in the assay with human GM-CSFRα-6His [12] was “binds”.

B9: E87-IgG1 (antibody, V domains shown)
VH: B1 VH with F64S, T102V, A105F, T106F, T107N
VL: B1 VL with D92N, Y96P
notes: human IgG1, human kappa
On to B9, for which, in the assay with human GM-CSFRα-6His [13], the binding result is recorded as “binds”.

B10: E87b-IgG4 (antibody, V domains shown)
VH: B1 VH with F64S, T102V, A105F, T106F, T107N
VL: B1 VL
notes: human IgG4, human kappa
On to B10, for which, in assay [2], the “IC50, IL-1β secretion by PBMC” value worked out at 0.0133 µg/mL. In the assay with human GM-CSFRα-6His [3], binding was characterised by a dissociation constant (Kd) of 6.75 pM, the koff turned out to be 2.42e-05 s⁻¹ and the kon was determined as 3.58e+06 M⁻¹ s⁻¹. Further, in assay [4], the “IC50, TNFα secretion by PBMC (ELISA)” value amounted to 0.0935 µg/mL. In addition, the “IC50, CD11b expression on human peripheral blood cells” value in assay [5] was 0.144 µg/mL. Also, the “IC50, human granulocyte survival” value in assay [7] was 0.00253 µg/mL. In addition, in [8], the “IC50, TNFα secretion by PBMC (Human Macrophage/Microglia Panel)” value stood at 0.0666 µg/mL. Also, the “IC50, human granulocyte shape change” value in assay [10] came out at 0.00151 µg/mL.

B11: E200a-IgG1 (antibody, V domains shown)
VH: B1 VH with S33P, I34M, S103I, L104I, A105T, T107N
VL: B1 VL with Y96P
notes: human IgG1, human kappa
Take B11: in the assay with human GM-CSFRα-6His [13], the binding result is “binds”.

B12: E85-IgG1 (antibody, V domains shown)
VH: B1 VH with F64S, T102S, L104Y, A105F, T107N
VL: B1 VL with D92N
notes: human IgG1, human kappa
For B12, in the assay with human GM-CSFRα-6His [13], the binding result is given as “binds”.

B13: EII55-IgG1 (antibody, V domains shown)
VH: B1 VH with P53G, E54D, D55W, G56H, A105D, T106A
VL: B1 VL with D92G, W94R, Y96D
notes: human IgG1, human kappa
Consider B13, for which the binding result with human GM-CSFRα-6His [13] is on record as “binds”.

B14: E108-IgG4 (antibody, V domains shown)
VH: B1 VH with Y27H, S103E, A105Y, T106Q, T107N
VL: B1 VL with D92N, Y96P
Regarding B14, the “IC50, human granulocyte survival” value in [7] worked out at 0.00552 µg/mL. In assay [10], the “IC50, human granulocyte shape change” value stood at 0.00207 µg/mL.

B15: E200a-IgG4 (antibody, V domains shown)
VH: B1 VH with S33P, I34M, S103I, L104I, A105T, T107N
VL: B1 VL with Y96P
notes: human IgG4, human kappa
Take B15: in the assay with human GM-CSFRα-6His [12], the binding result is given as “binds”.

B16: E113-IgG4 (antibody, V domains shown)
VH: B1 VH with F64S, S103E, A105F, T106A, T107S
VL: B1 VL with D92N
notes: human IgG4, human kappa
As for B16, the binding result in the assay with human GM-CSFRα-6His [12] is reported as “binds”.

B17: E113-IgG1 (antibody, V domains shown)
VH: B1 VH with F64S, S103E, A105F, T106A, T107S
VL: B1 VL with D92N
notes: human IgG1, human kappa
For B17, in the assay with human GM-CSFRα-6His [13], the binding result is “binds”.

In general, Kd refers to the concentration at which binding is half-saturated. In general, koff refers to the first-order rate constant of dissociation. Usually kon stands for the rate constant with which the complex forms.
